Data set [1] deals with T1, wtCas12a (Francisella novicida, UniProt A0Q7Q2 1-1300). The experiment in a line: Mg2+.
Data set [2] has as its target T1, wtCas12a. The experiment in a line: Mg2+. The source holds these as a separate data set.

Like-named read-outs stand apart in the source and are kept apart here.

T1 sequence (A0Q7Q2 whole entry): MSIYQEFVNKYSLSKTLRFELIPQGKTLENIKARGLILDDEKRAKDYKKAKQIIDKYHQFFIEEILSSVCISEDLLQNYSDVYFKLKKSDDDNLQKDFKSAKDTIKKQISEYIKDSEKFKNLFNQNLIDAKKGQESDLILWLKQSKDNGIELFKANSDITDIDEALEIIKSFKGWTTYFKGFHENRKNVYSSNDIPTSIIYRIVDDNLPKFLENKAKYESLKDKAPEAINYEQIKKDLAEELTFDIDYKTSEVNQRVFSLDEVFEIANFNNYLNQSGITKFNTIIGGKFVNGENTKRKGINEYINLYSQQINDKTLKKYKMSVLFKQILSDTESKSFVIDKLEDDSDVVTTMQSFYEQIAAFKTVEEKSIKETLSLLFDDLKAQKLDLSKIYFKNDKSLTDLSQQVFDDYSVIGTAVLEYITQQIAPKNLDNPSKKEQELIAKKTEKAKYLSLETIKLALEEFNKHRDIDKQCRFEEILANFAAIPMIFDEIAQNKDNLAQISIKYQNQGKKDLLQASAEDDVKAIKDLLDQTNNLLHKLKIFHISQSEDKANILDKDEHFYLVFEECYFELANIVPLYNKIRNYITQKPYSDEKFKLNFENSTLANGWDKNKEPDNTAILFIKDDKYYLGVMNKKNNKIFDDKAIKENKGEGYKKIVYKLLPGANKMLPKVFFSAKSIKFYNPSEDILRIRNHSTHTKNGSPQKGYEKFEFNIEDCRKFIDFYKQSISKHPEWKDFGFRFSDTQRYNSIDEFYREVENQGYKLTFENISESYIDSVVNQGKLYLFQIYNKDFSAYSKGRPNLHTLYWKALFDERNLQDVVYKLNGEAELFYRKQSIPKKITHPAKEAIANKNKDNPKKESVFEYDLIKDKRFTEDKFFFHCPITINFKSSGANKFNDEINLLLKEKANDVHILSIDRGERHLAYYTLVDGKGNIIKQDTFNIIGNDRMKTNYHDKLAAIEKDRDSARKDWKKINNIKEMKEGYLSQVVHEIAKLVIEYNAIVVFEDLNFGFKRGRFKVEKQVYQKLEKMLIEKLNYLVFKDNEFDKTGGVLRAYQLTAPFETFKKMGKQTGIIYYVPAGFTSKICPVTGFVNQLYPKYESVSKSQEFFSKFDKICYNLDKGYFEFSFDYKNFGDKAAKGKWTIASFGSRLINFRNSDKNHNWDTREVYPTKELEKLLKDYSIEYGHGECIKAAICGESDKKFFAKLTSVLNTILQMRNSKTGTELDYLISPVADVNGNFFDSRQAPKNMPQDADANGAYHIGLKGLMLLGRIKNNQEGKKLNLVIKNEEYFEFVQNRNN

Turning to AAUUUCUACUGUUGUAGAUUGUAAAGAAACAGUAAGAUAAU (mixed) [crRNA-1 + lambda ssDNA (T-strand), no activator], in the data set with wtCas12a [1], the binding result is “no binding”.

B1: crRNA-1/lambda-activator + lambda ssDNA (T-strand) (mixed)
RNA: AAUUUCUACUGUUGUAGAUUGUAAAGAAACAGUAAGAUAAU
DNA: CATCGGGTTGAGTATTATCTTACTGTTTCTTTACATAAAC
Take B1: the binding result with wtCas12a [2] is given as “binds”.
